According to US20020106690A1 (published 2002):
“And” between values parts separate entries of the source, which are not always exact repeats. Equal values may be shown once.

Columns and labels:
[1] = molecular target: T1, Ste4p, P18851
T1 chain: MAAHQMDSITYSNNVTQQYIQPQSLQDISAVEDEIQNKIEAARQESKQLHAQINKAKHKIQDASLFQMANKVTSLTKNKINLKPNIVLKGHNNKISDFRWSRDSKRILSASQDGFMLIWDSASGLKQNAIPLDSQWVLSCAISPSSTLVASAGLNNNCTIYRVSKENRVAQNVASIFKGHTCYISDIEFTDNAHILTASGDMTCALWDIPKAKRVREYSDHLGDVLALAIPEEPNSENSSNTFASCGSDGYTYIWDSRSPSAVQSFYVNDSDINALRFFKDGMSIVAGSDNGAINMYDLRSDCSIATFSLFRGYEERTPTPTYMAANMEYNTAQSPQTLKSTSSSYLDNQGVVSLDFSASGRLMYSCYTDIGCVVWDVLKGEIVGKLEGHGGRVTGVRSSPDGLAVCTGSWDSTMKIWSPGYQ

[2] = molecular target: T2, HA-Ste4p (Saccharomyces cerevisiae (yeast), UniProt P18851 1-423); assay: co-immunoprecipitation from yeast extracts, Western blot
T2 sequence (looked up): T1 chain

[3] = molecular target: T2, HA-Ste4p; assay: co-immunoprecipitation from yeast extracts, densitometry of Western blots, against untreated cells
Protocol: (A) Time course of pheromone-induced Ste20p binding to HA-Ste4p. HA-Ste4p expressed from the STE4 promoter in cells deleted for STE4 was immunoprecipitated after treatment with […] a-factor. Relative amounts of Ste20p and HA-Ste4p were determined in Western blots (see example in upper and middle panels) and quantified densitometrically (mean values ±SD, n=3) (lower panel). (B) Association of Ste5p with HA-Ste4p expressed from the STE4 promoter in cells deleted for STE4 . HA-Ste4p immunoprecipitates from exponentially growing (−) and pheromone-treated (90 minutes) (+) yeast cells were analyzed with antibodies to Ste5p (upper panel) or HA-Ste4p (lower panel). (C) Overexpression of Ste4p leads to binding to Ste20p. HA-Ste4p was overexpressed from the GAL1 promoter in cells deleted for STE20 (lane 1) or STE4 (lanes 2 and 3). HA-Ste4p expression was suppressed in glucose-containing medium in cells deleted for STE4 (lane 4). Immunoprecipitates obtained with antibodies to Ste20p (lanes 1 and 2) or the HA-epitope (lanes 3 and 4) were analyzed for the presence of Ste20p (upper panel) and HA-Ste4p (lower panel). (D) Coimmunoprecipitation of HA-Ste4p and Ste20p truncation mutants. […] HA-Ste4p (lanes 1 and 2) and Ste20p (lanes 3 and 4) immunoprecipitates were analyzed for the presence of Ste20p (upper panel) and HA-Ste4p (lower panel) by Western blot analyses. […]

[4] = molecular target: T3, GST-Ste20p FL (Saccharomyces cerevisiae (yeast), UniProt Q03497 1-939); assay: GST pull-down of in vitro-translated HA-Ste18p
T3 construct: Purified on glutathione-Sepharose beads; also called GST fusion with full length Ste20p; not shown: glutathione S-transferase (GST), amino-terminal fusion partner
T3 sequence: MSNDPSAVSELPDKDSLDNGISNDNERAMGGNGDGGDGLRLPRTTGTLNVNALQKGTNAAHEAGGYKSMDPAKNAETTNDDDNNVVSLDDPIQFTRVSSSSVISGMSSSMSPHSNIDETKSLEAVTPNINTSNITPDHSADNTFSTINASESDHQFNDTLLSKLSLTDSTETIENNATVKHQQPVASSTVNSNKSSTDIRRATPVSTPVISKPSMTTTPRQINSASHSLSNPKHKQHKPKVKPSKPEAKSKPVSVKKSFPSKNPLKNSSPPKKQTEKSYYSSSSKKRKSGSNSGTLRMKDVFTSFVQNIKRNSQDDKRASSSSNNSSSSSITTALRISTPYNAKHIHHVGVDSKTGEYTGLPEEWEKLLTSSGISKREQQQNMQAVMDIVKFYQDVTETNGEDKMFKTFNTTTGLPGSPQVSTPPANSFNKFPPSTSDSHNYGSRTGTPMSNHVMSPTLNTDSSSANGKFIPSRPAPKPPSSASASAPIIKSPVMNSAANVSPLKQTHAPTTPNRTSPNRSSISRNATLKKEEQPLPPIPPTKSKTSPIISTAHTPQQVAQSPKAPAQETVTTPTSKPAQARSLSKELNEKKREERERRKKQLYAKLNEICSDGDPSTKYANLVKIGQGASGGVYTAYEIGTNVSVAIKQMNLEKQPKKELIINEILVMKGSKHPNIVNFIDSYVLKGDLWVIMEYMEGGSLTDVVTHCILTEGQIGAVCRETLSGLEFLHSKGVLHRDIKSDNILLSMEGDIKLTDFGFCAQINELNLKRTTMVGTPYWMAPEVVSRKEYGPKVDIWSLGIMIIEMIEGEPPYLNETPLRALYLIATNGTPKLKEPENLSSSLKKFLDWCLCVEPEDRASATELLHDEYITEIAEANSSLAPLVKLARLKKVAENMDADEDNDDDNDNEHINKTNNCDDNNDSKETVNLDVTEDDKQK

B1: Ste20p^495-877 (enzyme)
chain: MNSAANVSPLKQTHAPTTPNRTSPNRSSISRNATLKKEEQPLPPIPPTKSKTSPIISTAHTPQQVAQSPKAPAQETVTTPTSKPAQARSLSKELNEKKREERERRKKQLYAKLNEICSDGDPSTKYANLVKIGQGASGGVYTAYEIGTNVSVAIKQMNLEKQPKKELIINEILVMKGSKHPNIVNFIDSYVLKGDLWVIMEYMEGGSLTDVVTHCILTEGQIGAVCRETLSGLEFLHSKGVLHRDIKSDNILLSMEGDIKLTDFGFCAQINELNLKRTTMVGTPYWMAPEVVSRKEYGPKVDIWSLGIMIIEMIEGEPPYLNETPLRALYLIATNGTPKLKEPENLSSSLKKFLDWCLCVEPEDRASATELLHDEYITEIAEA
notes: Overexpressed from the GAL1 promoter (pDH171) in cells deleted for STE20; also called STE20^495-877
Q: Which FUS1::lacZ expression, Basal [1] does the source give for B1 here?
A: The FUS1::lacZ expression, Basal was less than 0.1.

Q: What about the FUS1::lacZ expression, Induced [1] of the same binder?
A: The FUS1::lacZ expression, Induced was less than 0.1.

Q: And the G1 arrest [1]?
A: Its G1 arrest is “-”.

Q: And the Mating efficiencies (%) [1]?
A: The Mating efficiencies (%) was 0.02%.

Q: What about the Shmoo formation [1] of the same binder?
A: Its Shmoo formation is “-”.

Q: Does B1 bind [2]?
A: Result: no binding

B2: Ste20p (enzyme)
chain: T3 sequence
notes: Full length Ste20p in yeast cells (endogenous, or from pDH166 / pSTE20-5); also called STE20^WT; wild-type Ste20p
Q: Which FUS1::lacZ expression [1] does the source give for B2 here?
A: The FUS1::lacZ expression was 274.

Q: And the FUS1::lacZ expression, Basal [1]?
A: Its FUS1::lacZ expression, Basal is 0.1.

Q: What about the FUS1::lacZ expression, Induced [1] of the same binder?
A: The FUS1::lacZ expression, Induced was 221.

Q: And the G1 arrest [1]?
A: The G1 arrest was “+”.

Q: And the Mating efficiencies (%) [1]?
A: Its Mating efficiencies (%) is 72.7% and 89.8%.

Q: What about the Shmoo formation [1] of the same binder?
A: The Shmoo formation was “+”.

Q: What about the “fold increase in the interaction after pheromone treatment” value [3] of the same binder?
A: Its value is roughly 5 fold.

B3: HA-Ste18p (other, Saccharomyces cerevisiae (yeast), UniProt P18852 1-110, looked up, not shown: small tags and cut ends)
chain: MTSVQNSPRLQQPQEQQQQQQQLSLKIKQLKLKRINELNNKLRKELSRERITASNACLTIINYTSNTKDYTLPELWGYPVAGSNHFIEGLKNAQKNSQMSNSNSVCCTLM
notes: In vitro-translated from pBTL65; also called in vitro-translated HA-Ste18p; γ-subunit of the mating response G-protein
Q: Does B3 bind [4]?
A: Result: no binding
